Laboratory results from US7429563B2, “Peptide carrier for drug delivery” (The Board of Trustees of the University of Illinois, priority 2004, dated 2008).
“Also recorded” adds a separate entry of the source.

Experiments:
HSA = molecular target: T1, HSA (Homo sapiens, UniProt P02768); experiment: 125I-HSA binding to MPO peptides immobilized on nitrocellulose (dot-blot); conditions: immobilized peptide
T1 construct: purchased Sigma (St. Louis, Mo.)
Procedure: ^125I-labeling and binding of proteins: HSA and MPO were labeled with ^125I using IODO-GEN reagent from Pierce (Rockford, Ill.). ^125I HSA binding to the MPO peptides was determined by dot-blot analysis. Peptides were immobilized on nitrocellulose membranes and non-specific binding was blocked with bovine γ-globulin (2 mg/ml in PBS) for 1 h at 22° C. Membranes were washed 2× with PBS and incubated with ^125I-labeled HSA (0.3 pM) for 2 h at 22° C. Membranes were then washed 4× with PBS containing 0.05% Tween-20 (PBST) and autoradiography was performed. In some experiments, the membranes were directly counted to determine the membrane-associated radioactivity.
Peptides were immobilized on nitrocellulose membranes and then incubated with 1 ml of 0.3 μM ^125I-HSA in PBS for 2 h. Other details were described in Example 1. Non-specific binding was determined by incubating membranes with ^125I-HSA in the absence of any peptides. Results are shown mean±S.E. for three separate experiments made in triplicate.

albumin = experiment: Albumin binding of ELKSLNPRWDGE, albumin from a variety of sources; conditions: e.g., human, porcine, murine
BLMVEC monolayers = experiment: Transendothelial 125I-MPO permeability, Transwell filters; assay type: cell-based, bovine
Procedure: FIG. 2A-FIG. 2C: Albumin increases the binding of ^125I-MPO to endothelial cell surface. The binding of ^125I-MPO to BLMVEC was measured as described in Example 1. Results are shown as mean SEM of three separate experiments made in a triplicate binding assay. *, indicates difference from control (p<0.05); **, (p<0.001) different from control (i.e., binding was determined in the presence of 5 mg/ml γ-globulin). […] FIG. 2B: Effects of albumin on time course transendothelial transport of MPO. BLMVEC grown on microporous Transwell filters were used to determine transendothelial transport of MPO as described in Example 1. […] The transendothelial ^125I-MPO clearance rate was calculated as described (24, 27). *, indicates difference from control or CD-treated group (p<0.001). […] Lung preparations were perfused at 37° C. with Krebs-albumin solutions at the indicated concentrations; MPO PS (μl/min/g wet lung) was determined by perfusing ^125I-MPO for 10 min, and removing vascular tracer with Krebs for 6 min and bound tracer with cold (12° C.) acetate buffer (pH 4.5) for 3 min. ^125I-MPO PS increased 2-fold upon increasing [BSA] from 0.05 to 0.4 g/100 ml. […]
Transendotlielial ^125I-MPO permeability: Transendothelial permeability of ^125I-MPO in BLMVEC monolayers was determined using Transwell filter units (24, 27). […]

BLMVEC [1] = experiment: MPO uptake and localization by confocal immunostaining; assay type: cell-based, bovine; conditions: for MPO staining (localization): 30 min 37° C.
Procedure: FIG. 3A-FIG. 3E: Albumin induces the endocytosis of MPO in endothelial cells. BLMVEC grown on glass coverslips were incubated with buffer C for 12 h. Cells were then incubated with buffer C containing 25 nM MPO alone or in combination with Alexa-594 BSA (50 μg/ml) and unlabeled BSA (1 mg/ml) for 30 min at 37° C. Cells were washed 3×, fixed with 4% PFA in HBSS for 30 min at 22° C., and blocked with 5% goat serum in HBBS containing 0.1% Triton X-100 (blocking buffer) for 30 min at 22° C. After washing, the cells were incubated with anti-MPO Ab diluted (1:1000) in blocking buffer at 4° C. overnight. After washing 2×, cells were incubated with Alexa-488 labeled (green) secondary Ab in blocking buffer for 60 min at 4° C. Confocal images were obtained as described in Methods. […] There was a marked co-localization of […] (green) and Alexa-594 BSA (red) in merged image (yellow; right). FIG. 3B: Albumin induces the co-localization of MPO with cholera toxin subunit B (CTB) in endothelial cells. BLMVEC were grown as described in FIG. 3A. Cells were incubated with Alexa 488-CTB; (20 ug/ml), MPO (25 nM), and BSA (1 mg/ml) in buffer C for 30 min at 37° C. After this, cells were washed, fixed, permeabilized, and stained with anti-MPO Ab and AlexaA594 labeled secondary antibody. Cells were visualized by confocal microscopy after mounting. Confocal images of CTB (green-left panel) and anti-MPO Ab staining (red-middle panel) in vesicles are shown. […] There was marked merging in vesicles in the YZ projection image (far left panel) and single frame (X-Y) or single line (Y-Z and X-Z) images (left panel) observed in the presence of albumin compared to the green CTB-positive/MPO negative vesicles observed in the absence albumin (right and far right panels). […]
Immunostaining: Cellular localization of MPO, albumin, CTB (a caveolae marker), and caveolin-1 was determined by confocal microscopy (Minshall et al., J. Cell Biol., 150:1057-1069 (2000); John et al., Am. J. Physiol. Lung Cell Mol. Physiol., 284:L187-L196 (2003)). […] MPO uptake in BLMVEC was determined in the presence or absence of albumin or CTB. […]

BLMVEC [2] = experiment: 125I-MPO binding to endothelial cell surface; assay type: cell-based, bovine; conditions: increasing BSA 1-50 mg/ml in binding buffer; 4° C., 1 h
Procedure: (§1) FIG. 2A-FIG. 2C: Albumin increases the binding of ^125I-MPO to endothelial cell surface. The binding of ^125I-MPO to BLMVEC was measured as described in Example 1. Results are shown as mean SEM of three separate experiments made in a triplicate binding assay. *, indicates difference from control (p<0.05); **, (p<0.001) different from control (i.e., binding was determined in the presence of 5 mg/ml γ-globulin). […] FIG. 2B: Effects of albumin on time course transendothelial transport of MPO. BLMVEC grown on microporous Transwell filters were used to determine transendothelial transport of MPO as described in Example 1. To study the methyl-B-cyclodextrin (CD) effect, luminal chamber was incubated with 5.0 mM CD for 20 min prior to measuring ^125I-MPO permeability. […] The transendothelial ^125I-MPO clearance rate was calculated as described (24, 27). *, indicates difference from control or CD-treated group (p<0.001). […] Lung preparations were perfused at 37° C. with Krebs-albumin solutions at the indicated concentrations; MPO PS (μl/min/g wet lung) was determined by perfusing ^125I-MPO for 10 min, and removing vascular tracer with Krebs for 6 min and bound tracer with cold (12° C.) acetate buffer (pH 4.5) for 3 min. ^125I-MPO PS increased 2-fold upon increasing [BSA] from 0.05 to 0.4 g/100 ml. […]

lung microvessels = experiment: Pulmonary vascular 125I-MPO permeability x surface area (PS), isolated-perfused lung; set-up: species or system rat
Procedure: as §1

GLATELGSLNPGWDGEGLYQEAGGIVGAMV [MPO-MT-peptide, mutant of MPO-WT-peptide, K and R replaced with G]
binding to HSA (in words) (HSA): failed to bind

ELKSLNPRWDGE
ability to bind albumin from a variety of sources (albumin): able to bind to albumin from any of a variety of sources

EARKIV
binding to HSA (in words) (HSA): no binding; also recorded: failed to bind

methyl-β-cyclodextrin [CD, reference compound]
effect on transport of 125I-MPO in the presence of albumin (BLMVEC monolayers; CD 5.0 mM for 20 min): prevented the transport | effect on albumin-induced MPO uptake (BLMVEC [1]; 5.0 mM CD for 20 min at 37° C.): prevented the albumin-induced MPO uptake

B1: MPO: MPO purified from human PMNs (Calbiochem), 125I-labeled for binding and permeability (protein, listed as Homo sapiens)
chain: MGVPFFSSLRCMVDLGPCWAGGLTAEMKLLLALAGLLAILATPQPSEGAAPAVLGEVDTSLVLSSMEEAKQLVDKAYKERRESIKQRLRSGSASPMELLSYFKQPVAATRTAVRAADYLHVALDLLERKLRSLWRRPFNVTDVLTPAQLNVLSKSSGCAYQDVGVTCPEQDKYRTITGMCNNRRSPTLGASNRAFVRWLPAEYEDGFSLPYGWTPGVKRNGFPVALARAVSNEIVRFPTDQLTPDQERSLMFMQWGQLLDHDLDFTPEPAARASFVTGVNCETSCVQQPPCFPLKIPPNDPRIKNQADCIPFFRSCPACPGSNITIRNQINALTSFVDASMVYGSEEPLARNLRNMSNQLGLLAVNQRFQDNGRALLPFDNLHDDPCLLTNRSARIPCFLAGDTRSSEMPELTSMHTLLLREHNRLATELKSLNPRWDGERLYQEARKIVGAMVQIITYRDYLPLVLGPTAMRKYLPTYRSYNDSVDPRIANVFTNAFRYGHTLIQPFMFRLDNRYQPMEPNPRVPLSRVFFASWRVVLEGGIDPILRGLMATPAKLNRQNQIAVDEIRERLFEQVMRIGLDLPALNMQRSRDHGLPGYNAWRRFCGLPQPETVGQLGTVLRNLKLARKLMEQYGTPNNIDIWMGGVSEPLKRKGRVGPLLACIIGTQFRKLRDGDRFWWENEGVFSMQQRQALAQISLPRIICDNTGITTVSKNNIFMSNSYPRDFVNCSTLPALNLASWREAS
modifications: 125I label
binding of 125I-MPO to the endothelial cell surface (BLMVEC [2]): increased the binding | increase of transendothelial 125I-MPO permeability (BLMVEC monolayers; in the presence of albumin, compared to γ-globulin (5 mg/ml)): more than 2 fold | MPO PS at higher BSA concentrations (lung microvessels; BSA 0.25 and 0.4 g/100 ml): did not increase further | increase in 125I-MPO PS (lung microvessels; upon increasing [BSA] from 0.05 to 0.4 g/100 ml): 2 fold | MPO staining (localization) (BLMVEC [1]; 25 nM MPO plus 1 mg/ml BSA): markedly co-localized with albumin-containing vesicles | MPO staining (localization) (BLMVEC [1]; 25 nM MPO, absence of albumin): observed only on the cell surface
